In assay [1] the target is human CLL-1 on cells (human) (UniProt Q5QGZ9). The assay is described as follows: FACS (PE-anti-human IgG), U937 cells.
The target is the same in assay [2]. The assay is described as follows: cell-based or functional assay.
Assay [3] shares this target. The assay is described as follows: FACS (PE-anti-human IgG), HL-60 cells.

Sequence of human CLL-1 on cells (human) (Q5QGZ9 whole entry): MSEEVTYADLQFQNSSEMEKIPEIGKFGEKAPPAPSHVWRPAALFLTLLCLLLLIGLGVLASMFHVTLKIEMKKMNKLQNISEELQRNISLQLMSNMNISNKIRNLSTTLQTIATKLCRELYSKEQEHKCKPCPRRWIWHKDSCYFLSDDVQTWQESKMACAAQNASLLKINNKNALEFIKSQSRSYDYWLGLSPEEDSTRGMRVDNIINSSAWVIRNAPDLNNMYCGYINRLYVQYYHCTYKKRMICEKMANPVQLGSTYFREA

Consider MCLA-117 (bispecific antibody), for which, in assay [1], the EC50 was determined as 4.53 nM. Besides, in assay [2], the CD25 on CD4 T cells, HL60 targets, EC50 came to 7.12 nM; the CD25 on CD4 T cells, U937 targets, EC50 worked out at 2.53 nM; the CD25 on CD8 T cells, HL60 targets, EC50 was 7.68 nM; the CD25 on CD8 T cells, U937 targets, EC50 was 2.88 nM. In assay [2], this substance had a CD69 on CD4 T cells, HL60 targets, EC50 of 2.33 nM; a CD69 on CD4 T cells, U937 targets, EC50 of 1.19 nM; a CD69 on CD8 T cells, HL60 targets, EC50 of 2.89 nM; a CD69 on CD8 T cells, U937 targets, EC50 of 0.713 nM. In assay [2], this substance showed a U937 cell lysis, EC50 of 0.128 nM. In assay [3], the concentration for a half-maximal effect (EC50) stood at 35.1 nM.

What is called EC50 is the concentration giving half of the maximal effect. Higher therefore signals lower potency in that assay.

Values taken from patent US20250084158A1.
